Data published in US9090659B2, “RHAMM binding peptides” (London Health Sciences Centre Research Inc., priority 2010, dated 2015).
Ends that are not written are not given here. Peptide text beside a SMILES is read from it.

Biological target: T1, RHAMM (Mus musculus, UniProt Q00547)
T1 construct: Profinity eXact tag; made in house; host or cells: E. coli BL21 (D3), plasmid pPAL7-RHAMM
T1 sequence (Q00547 706-766): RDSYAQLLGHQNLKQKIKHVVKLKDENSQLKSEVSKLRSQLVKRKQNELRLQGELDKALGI
Test: SPR-based screening of tubulin-derived peptides against immobilized RHAMM (ProteON XPR36)
Type: binding
Conditions: peptides 10 μM injected over immobilized RHAMM
Procedure: ProteON XPR36 system was used for the selection and ranking of different tubulin derived peptides against RHAMM. For immobilization of RHAMM, the ProteON GLC sensor chip surfaces were activated by amine coupling using 100 mM EDAC and 24 mM sulfo-NHS. RHAMM (30 μg/mL in sodium bicarbonate buffer, pH 9.7) was injected at a flow a rate of 30 μl/min. A buffer sample was injected on a different sensor plate for use as a reference. Ethanolamine HCl (1M, pH 8.5) was then injected to deactivate any remaining surface groups. Peptides (10 μM in PBS-T, 2% DMSO) were injected to a RHAMM functionalized surface at 50 μL/min for 3 minutes followed by a 10 minute dissociation (i.e. injection of PBS-T buffer) period. The surfaces were regenerated using two injections of 30 μL of 1M NaCl prior to the injection of the next peptide. In all experiments, reference subtraction was performed using data obtained from reference plate (No RHAMM) and RHAMM functionalized plate.
A SPR (surface plasmon resonance)-based screening method was utilized for rapid and accurate determination of potential peptide candidates that are able to recognize the HA-binding domain of RHAMM. Seventeen tubulin-derived peptides were screened, and the resulting sensograms were used to deduce peptides which show affinity to RHAMM. Prior to screening, the optimal condition for ligand immobilization, in this instance RHAMM, to the sensor plate was determined. The optimal pH for the immobilization buffer balances the electrostatic attraction of the protein to the sensor plate while minimizing protein deactivation. In this study the optimal pH for immobilization was determined to be the pH that yielded the highest ligand density. RHAMM was coupled to the sensor plate using sodium bicarbonate buffer of varying pH, at a flow rate of 30 μL/min and with fixed concentration of EDAC and sulfo-NHS. The RHAMM ligand density for each pH immobilization condition was determined from the average SPR response of six measurements and the maximum ligand immobilization occurred at pH 9.7 (FIG. 3 A). Ligand immobilization was slightly lower than pH 10.1 due in part to loss of net charge on RHAMM at its isoelectric point.
After immobilization of RHAMM on the SPR sensor chip, injection of a series of tubulin derived peptides was carried out. Association of the peptides with RHAMM proceeded for 3 minutes and the dissociation in analyte free buffer was carried out for 10 minutes. […] For each peptide injection, control sensograms (no immobilized RHAMM and buffer injection) were subtracted from the test sensograms, and the chip surface was regenerated prior to the next peptide injection in order to remove any remaining bound peptides.

Compound	affinity to RHAMM in SPR screening
SEQ ID NO: 2: synthesized tubulin-derived 12-residue peptide containing DEXEEZ motif (DSADGEDEGEEY)	failed the initial screening
SEQ ID NO: 3: synthetic αIIIc tubulin CTT peptide containing EEXEEZ motif (SVEAEAEEGEEY)	enhanced affinity to RHAMM
SEQ ID NO: 4: synthesized tubulin-derived 12-residue peptide containing DEXEEZ motif (IDSYEDEDEGEE)	failed the initial screening
SEQ ID NO: 10: synthesized tubulin-derived 12-residue peptide containing EEXEDZ motif (GEFEEEEGEDEA)	failed the initial screening
SEQ ID NO: 11: synthetic βIV-CTT tubulin peptide containing EEXEEZ motif (GEFEEEAEEEVA-NH2)	enhanced affinity to RHAMM
SEQ ID NO: 12: synthesized tubulin-derived 12-residue peptide of FIG. 2B (EAFEDEEEEIDG)	enhanced affinity to RHAMM

Biological target: T1, RHAMM
Test: SPR binding assay for kinetic constants, RHAMM flowed over immobilized peptides (GWC SPRimager II)
Conditions: peptide immobilized on sensor plate; RHAMM 500, 750, 1000 nM; 1:1 Langmuir binding model
Procedure: After peptide screening, […] system was used to determine binding kinetic constants. Thiol-containing peptides at 1 nM concentration in milliQ water were immobilized on a maleimide-functionalized gold-plated chip for 3 hours. Excess peptides were removed by washing with milliQ water. For binding studies, a series of concentrations (500 nM, 750 nM, and 1000 nM) of RHAMM were injected over the immobilized peptides. After a 15 min dissociation phase, the sensor chip surface was regenerated for the next peptide sample injection, via treatment with two 10 min pulse injections of regenerating buffer (2 M NaCl in HBS-EP, pH 7.4) at […]. Baseline returned to the initial value after the regeneration step, confirming the removal of all bound analytes. Data were analyzed and the corresponding dissociation constants (KD) were obtained via non-linear regression fitting to a Langmuir binding model. In all experiments, reference subtraction was performed using data obtained from reference plate (no peptide) and peptide functionalized plate. The binding of the six peptides deduced in the previous section to RHAMM was quantified. Truncation studies indicate that the CTTs (i.e. the last 12 carboxy-terminal residues of S-peptides), were sufficient to induce MAP-directed microtubule assembly, thus placing a label spaced by a linker moiety on the amino terminus of CTT should not affect the peptide-protein interaction. Peptides were immobilized on the sensor plate and RHAMM was flowed over derivatized surface at different concentrations at a constant flow rate of 100 μL/min. FIG. 4 A depicts the resulting sensograms. Again, each sensograms has been corrected by subtracting each curve from a reference sensorgram (data acquired from the sensorgram without immobilized peptide) in order to account for refractive index differences between running buffer and sample solutions. Experimental sensograms were fitted with curves resulting from a kinetic model for a 1:1 Langmuir binding model. […]

Compound	Kd
CC(C)[C@H](N)C(=O)N[C@@H](CCC(=O)O)C(=O)NCC(=O)N[C@@H](CCC(=O)O)C(=O)NCC(=O)N[C@@H](CCC(=O)O)C(=O)N[C@@H](CCC(=O)O)C(=O)N[C@@H](CCC(=O)O)C(=O)NCC(=O)N[C@@H](CCC(=O)O)C(=O)N[C@@H](CCC(=O)O)C(=O)N[C@@H](Cc1ccc(O)cc1)C(N)=O [SEQ ID NO: 1] (H-VEGEGEEEGEEY-NH2)	24 nM
C[C@H](NC(=O)[C@H](CCC(=O)O)NC(=O)[C@H](CCC(=O)O)NC(=O)[C@H](CCC(=O)O)NC(=O)[C@H](C)NC(=O)[C@H](CCC(=O)O)NC(=O)[C@H](CCC(=O)O)NC(=O)CNC(=O)[C@H](Cc1ccccc1)NC(=O)[C@H](CC(=O)O)NC(=O)[C@H](CCC(=O)O)NC(=O)[C@@H](N)CCC(=O)O)C(N)=O [SEQ ID NO: 9] (H-EEDFGEEAEEEA-NH2)	32 nM
CSCC[C@H](NC(=O)[C@H](CC(N)=O)NC(=O)[C@H](CO)NC(=O)[C@H](CCC(=O)O)NC(=O)[C@H](C)NC(=O)[C@H](CCC(=O)O)NC(=O)[C@@H](NC(=O)[C@@H](N)Cc1ccccc1)[C@@H](C)O)C(=O)N[C@@H](CC(N)=O)C(=O)N[C@@H](CC(=O)O)C(=O)N[C@@H](CC(C)C)C(=O)N[C@H](C(N)=O)C(C)C [SEQ ID NO: 14] (H-FTEAESNMNDLV-NH2)	30 nM

Tested on: ascites-derived human EOC cells
Test: Cell viability (alamarBlue) of ascites-derived human EOC cells
Type: cell-based
Conditions: 7 and 0.7 uM, re-dosing everyday up to 6 days; p<0.05
Procedure: The ability of one RHAMM-binding peptide (SEQ ID NO: 1) to limit the proliferation of patient derived epithelial ovarian cancer tumors and the ability of another RHAMM-binding peptide (SEQ ID NO: 3) to reduce the viability of ascites-derived human EOC cells were examined. In these assays, epithelial ovarian cancer cells (derived from ascites of patients) were plated in a 96-well plate at density 5,000 cells/well and allowed to grow for 24 hours at 37° C. and 5% CO2. Peptides (1 uM and 10 uM) were added to cells on day one and proliferation was measured for 6 days. 1/10th volume of Alamar Blue reagent was added directly to cells in culture medium everyday for six days. Fluorescence was read at 570/590 nm. Data were obtained from mean of two experiments. Cells treated with just DMSO (dimethylsulfoxide) and “no-cell” control samples were included in the experiment.
Primary cells from patient sample EOC were seeded to a 24-well culture dish and 24 hours later treatment was initiated with the RHAMM-binding peptide SEQ ID NO: 3 (7 and 0.7 uM concentrations) or DMSO vehicle control. Re-dosing occurred everyday for up to 6 days and cell viability was assessed by fluorometry using alamarBlue™ reagent (measured in fluorescence units, FU).

Compound	viability of EOC cells (fluorescence units)
SEQ ID NO: 3: synthetic αIIIc tubulin CTT peptide containing EEXEEZ motif (SVEAEAEEGEEY)	reduced viability

Biological target: T2, RHAMM (Mus musculus, UniProt Q00547)
T2 construct: Profinity eXact tag; made in house; host or cells: E. coli BL21 (D3), plasmid pPAL7-RHAMM
Test: KD (nM)
Conditions: not given
From the text: Table printed on a drawing sheet, FIG. 2 B
Head of the field: KD (nM)
The patent's description of the figure: FIG. 2 A illustrate the general structure of (a) unmodified tubulin-derived peptides, (b) tubulin-derived peptides conjugated to N-acetyl cysteine, and (c) tubulin-derived peptides conjugated to fluorescein isothiocyanate.
FIG. 2 B is a table of 17 synthesized tubulin-derived peptides, including peptides derivatized with fluorescein or N-acetyl cysteine, tubulin fragment type, calculated and observed mass spectrometry m/z values (m is representative of molecular or atomic mass and z is representative of the number of elementary charges carried by the ion), percent purity and binding constant Kd. FIG. 2 B discloses SEQ ID NOs: 1, 24-25, 2-3, 26-27, 4-9, 28-29, 10-11, 30-31, 12, 32-33, 13-14, 34-35 and 15-17, respectively, in order of appearance.
FIG. 2 B is a table which describes all 17 peptides prepared for this study. Sequences of 17 synthesized peptides encompass the CTTs of different tubulin subtypes as well as sequences directly flanking α1a- (SEQ ID NOs: 6, 7 and 8) and βIIIa-CTT (SEQ ID NOs: 13 and 14). […]
First copying reader's note: The table is continued on the next sheet (printed: continued on page 4/20).
Where the first naming reader finds the target: patent_title: RHAMM binding peptides

Compound	Kd
C[C@H](NC(=O)[C@H](CO)NC(=O)[C@@H](N)CC(=O)O)C(=O)N[C@@H](CC(=O)O)C(=O)NCC(=O)N[C@@H](CCC(=O)O)C(=O)N[C@@H](CC(=O)O)C(=O)N[C@@H](CCC(=O)O)C(=O)NCC(=O)N[C@@H](CCC(=O)O)C(=O)N[C@@H](CCC(=O)O)C(=O)N[C@@H](Cc1ccc(O)cc1)C(N)=O [SEQ ID NO. 2 | 2, Alpha Ia CTT (438-449)] (H-DSADGEDEGEEY-NH2; N-terminus assumed)	< 1000 nM
CC(C)[C@H](NC(=O)[C@@H](N)CO)C(=O)N[C@@H](CCC(=O)O)C(=O)N[C@@H](C)C(=O)N[C@@H](CCC(=O)O)C(=O)N[C@@H](C)C(=O)N[C@@H](CCC(=O)O)C(=O)N[C@@H](CCC(=O)O)C(=O)NCC(=O)N[C@@H](CCC(=O)O)C(=O)N[C@@H](CCC(=O)O)C(=O)N[C@@H](Cc1ccc(O)cc1)C(N)=O [SEQ ID NO. 3 | 3a, Alpha IIIc CTT (439-450)] (H-SVEAEAEEGEEY-NH2; N-terminus assumed)	331 nM
